Assay [1] deals with SNAP-GAL2R F264^ECL3A (human) (UniProt O43603). The assay can be described thus: AlphaScreen or HTRF; saturation binding: HEK293 cells transfected with SNAP-GAL1R or SNAP-GAL2R (WT or mutants), labelled with SNAP-Lumi4-Tb; increasing concentrations of galanin-A2 with or without 100 uM unlabeled galanin, 1 h at room temperature.
The target in assay [2] is SNAP-GAL2R Q82^2.61A (human) (UniProt O43603). Described as above.
In assay [3] the target is SNAP-GAL2R Y271^7.32A (human) (UniProt O43603). Described as above.
The target in assay [4] is T1, N-terminal-SNAP-tagged GAL2R, wild type (human, UniProt O43603 1-387, Lumi4-Tb on the SNAP tag).
T1 construct: also called SNAP-GAL2R; GAL2R WT; source: HEK293, transfected, on cells; not shown: SNAP tag, N-terminal, kept
T1 sequence (looked up): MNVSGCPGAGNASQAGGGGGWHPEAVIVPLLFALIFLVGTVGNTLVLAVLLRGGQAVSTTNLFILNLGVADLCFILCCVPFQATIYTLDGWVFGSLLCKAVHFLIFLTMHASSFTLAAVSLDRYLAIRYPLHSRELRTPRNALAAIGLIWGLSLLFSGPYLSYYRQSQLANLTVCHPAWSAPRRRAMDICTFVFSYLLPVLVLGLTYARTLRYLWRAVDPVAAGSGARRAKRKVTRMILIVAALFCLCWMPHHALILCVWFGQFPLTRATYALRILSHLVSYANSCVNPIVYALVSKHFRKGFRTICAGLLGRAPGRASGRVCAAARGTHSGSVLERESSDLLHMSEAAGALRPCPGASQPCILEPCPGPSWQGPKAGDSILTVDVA
The assay can be described thus: AlphaScreen or HTRF; saturation binding: HEK293 cells transfected with SNAP-tagged receptor (WT or mutant) and labelled with SNAP-Lumi4-Tb, incubated with increasing concentrations of galanin-A2 in the presence or absence of 100 uM unlabeled galanin, 1 h at room temperature; HTRF ratio 665 nm/620 nm. The settings on record: one partner purified. For orientation: Bead proximity is the source of the signal in Alpha formats.

The next assay has as its target T2, SNAP-GAL2R L169^ECL2A (human, UniProt O43603 1-387, L169^ECL2A, Lumi4-Tb on the SNAP tag).
T2 construct: also called L169A; source: HEK293, transfected, on cells; not shown: SNAP tag, N-terminal, kept
T2 sequence (looked up): T1 sequence (looked up) with L169A
The assay is described as above. To be noted: one partner purified.

For the next assay, the target named is T3, SNAP-GAL2R L172^ECL2A (human, UniProt O43603 1-387, L172^ECL2A, Lumi4-Tb on the SNAP tag).
T3 construct: also called L172A; source: HEK293, transfected, on cells; not shown: SNAP tag, N-terminal, kept
T3 sequence (looked up): T1 sequence (looked up) with L172A
The assay is described as above. The settings on record: one partner purified.

A further assay deals with T4, SNAP-GAL2R L255^6.54A (human, UniProt O43603 1-387, L255^6.54A, Lumi4-Tb on the SNAP tag).
T4 construct: also called L255A; source: HEK293, transfected, on cells; not shown: SNAP tag, N-terminal, kept
T4 sequence (looked up): T1 sequence (looked up) with L255A
Described as above. The settings on record: one partner purified.

Data on 1 molecule can be found in publication PMC8924211 (Nature Communications, 2022).

Changes are numbered by the printed parent chain. A value given as a limit tells only on which side of the number the result lay.

Sequence of SNAP-GAL2R Q82^2.61A (human) (O43603 whole entry Q82A): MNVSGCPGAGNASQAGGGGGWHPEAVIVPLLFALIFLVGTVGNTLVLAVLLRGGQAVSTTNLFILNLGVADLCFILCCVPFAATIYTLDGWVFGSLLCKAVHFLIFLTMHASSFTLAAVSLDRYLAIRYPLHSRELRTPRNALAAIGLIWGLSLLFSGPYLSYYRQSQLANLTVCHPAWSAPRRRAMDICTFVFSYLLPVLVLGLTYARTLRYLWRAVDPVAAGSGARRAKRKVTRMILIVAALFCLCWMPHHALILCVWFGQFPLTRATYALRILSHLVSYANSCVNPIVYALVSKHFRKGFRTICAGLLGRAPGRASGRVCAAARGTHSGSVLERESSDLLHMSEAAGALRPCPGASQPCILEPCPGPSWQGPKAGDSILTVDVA
Sequence of SNAP-GAL2R F264^ECL3A (human) (O43603 whole entry F264A): as the sequence (O43603 whole entry Q82A) above, with A82Q, F264A counted along it
Sequence of SNAP-GAL2R Y271^7.32A (human) (O43603 whole entry Y271A): as the sequence (O43603 whole entry Q82A) above, with A82Q, Y271A counted along it

B1: galanin-A2 (full-length galanin labeled with the dye A2 on an additional cysteine at the C-terminal end) (peptide)
peptide: GWTLNSAGYLLGPHAVGNHRSFSDKNGLTSC
modifications: dye A2 on the additional C-terminal cysteine
notes: numbers count on: the mature protein; additional cysteine at the C-terminal end of the peptide, carries the dye A2; source: synthetic peptide (synthesized by Vazyme, China)
As a reminder, the Kd is a measure of binding affinity in units of concentration. Consider B1, for which the Kd in assay [1] was more than 500 nM; in assay [2], more than 500 nM; in assay [3], more than 500 nM; in assay [4], 21.7 nM; with SNAP-GAL2R L169^ECL2A it was 86.2 nM; with SNAP-GAL2R L172^ECL2A, 51.6 nM. The Kd with SNAP-GAL2R L255^6.54A was 55.1 nM.
